# The supplement of paper PMC9112550, “Optimization of the antimicrobial peptide Bac7 by deep mutational scanning” (BMC Biology, 2022)
# System: Escherichia coli TOP10
# Experiment: shrunken log2 fold change of peptide-encoding DNA abundance (4.5 h post-induction vs induction); higher = less antimicrobial activity (less host growth inhibition)
# Details: time post-induction: 4.5 h; library: site-saturation at positions 5, 18, 19, 20
# 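Further: peptides expressed intracellularly from a pBAD plasmid library in pooled LB shake-flask culture, induced with 0.3% L-arabinose, DNA abundance read by NGS, three biological replicates, DESeq2 with apeglm shrinkage.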
row,Sequence,shrunken log2 fold change
1,RRIRHRPPRLPRPRPRPNLYPRP,-0.012
2,RRIRIRPPRLPRPRPRPHTPPRP,-0.721
3,RRIRCRPPRLPRPRPRPNGRPRP,0.0604
4,RRIRFRPPRLPRPRPRPAQRPRP,0.302
5,RRIRERPPRLPRPRPRPWCWPRP,0.315
6,RRIRCRPPRLPRPRPRPDLGPRP,0.43
7,RRIRKRPPRLPRPRPRPSALPRP,0.271
8,RRIRNRPPRLPRPRPRPTWNPRP,-0.0528
9,RRIRPRPPRLPRPRPRPPYSPRP,-0.181
10,RRIRYRPPRLPRPRPRPYGDPRP,-0.525
11,RRIRIRPPRLPRPRPRPPIWPRP,-0.00949
12,RRIRGRPPRLPRPRPRPMMFPRP,0.69
13,RRIRWRPPRLPRPRPRPYQNPRP,-0.847
14,RRIRWRPPRLPRPRPRPQTSPRP,-0.0118
15,RRIRWRPPRLPRPRPRPYKSPRP,-0.144
16,RRIRERPPRLPRPRPRPMKPPRP,-0.0018
17,RRIRRRPPRLPRPRPRPTVGPRP,0.0232
18,RRIRFRPPRLPRPRPRPQSWPRP,-0.0287
19,RRIRSRPPRLPRPRPRPHNPPRP,-0.531
20,RRIRIRPPRLPRPRPRPEIDPRP,-0.157
21,RRIRRRPPRLPRPRPRPLECPRP,0.0527
22,RRIRERPPRLPRPRPRPSWMPRP,-0.416
23,RRIRHRPPRLPRPRPRPKTWPRP,-0.0101
24,RRIRLRPPRLPRPRPRPELVPRP,0.113
25,RRIRGRPPRLPRPRPRPGAQPRP,1.19

row,Sequence,shrunken log2 fold change
1,RRIRARPPRLPRPRPRPEKQPRP,-0.148
2,RRIRWRPPRLPRPRPRPVDLPRP,-0.107
3,RRIRSRPPRLPRPRPRPACDPRP,0.119
4,RRIRVRPPRLPRPRPRPLWSPRP,-0.0257
5,RRIRERPPRLPRPRPRPIYHPRP,-0.626
6,RRIRKRPPRLPRPRPRPECDPRP,3.35
7,RRIRRRPPRLPRPRPRPMGEPRP,0.0186
8,RRIRYRPPRLPRPRPRPVEDPRP,-0.0671
9,RRIRIRPPRLPRPRPRPWKPPRP,-0.093
10,RRIRQRPPRLPRPRPRPFRYPRP,-0.245
11,RRIRIRPPRLPRPRPRPTWRPRP,0.274
12,RRIRYRPPRLPRPRPRPDVQPRP,-0.0317
13,RRIRRRPPRLPRPRPRPRDCPRP,0.177
14,RRIRRRPPRLPRPRPRPRTWPRP,1.84
15,RRIRTRPPRLPRPRPRPHCQPRP,-0.359
16,RRIRQRPPRLPRPRPRPAFWPRP,0.382
17,RRIRCRPPRLPRPRPRPCANPRP,0.00335
18,RRIRHRPPRLPRPRPRPRKLPRP,-0.141
19,RRIRRRPPRLPRPRPRPYLDPRP,-0.546
20,RRIRTRPPRLPRPRPRPSADPRP,-0.0419
21,RRIRMRPPRLPRPRPRPLGSPRP,0.169
22,RRIRIRPPRLPRPRPRPTFPPRP,-0.316
23,RRIRTRPPRLPRPRPRPCGMPRP,-0.0074
24,RRIRRRPPRLPRPRPRPPQWPRP,0.66
25,RRIRPRPPRLPRPRPRPDPGPRP,0.0845

row,Sequence,shrunken log2 fold change
1,RRIRERPPRLPRPRPRPFDFPRP,-0.146
2,RRIRFRPPRLPRPRPRPLMYPRP,-0.323
3,RRIRSRPPRLPRPRPRPHEHPRP,0.113
4,RRIRCRPPRLPRPRPRPGFYPRP,-0.449
5,RRIRTRPPRLPRPRPRPPFEPRP,0.156
6,RRIRFRPPRLPRPRPRPHSVPRP,0.036
7,RRIRDRPPRLPRPRPRPAGTPRP,0.207
8,RRIRRRPPRLPRPRPRPMWKPRP,-0.0119
9,RRIRQRPPRLPRPRPRPIWGPRP,-0.105
10,RRIRKRPPRLPRPRPRPGREPRP,0.913
11,RRIRCRPPRLPRPRPRPVIDPRP,0.136
12,RRIRWRPPRLPRPRPRPMSAPRP,0.338
13,RRIRVRPPRLPRPRPRPHKHPRP,-0.483
14,RRIRVRPPRLPRPRPRPCIEPRP,-0.351
15,RRIRKRPPRLPRPRPRPHRCPRP,0.0753
16,RRIRTRPPRLPRPRPRPVWMPRP,-0.0336
17,RRIRNRPPRLPRPRPRPHEYPRP,-0.048
18,RRIRCRPPRLPRPRPRPMNAPRP,-0.422
19,RRIRARPPRLPRPRPRPVKYPRP,-0.166
20,RRIRVRPPRLPRPRPRPLAHPRP,0.00485
21,RRIRQRPPRLPRPRPRPGMRPRP,0.941
22,RRIRARPPRLPRPRPRPMGGPRP,0.0776
23,RRIRNRPPRLPRPRPRPTALPRP,-0.18
24,RRIRHRPPRLPRPRPRPTYMPRP,-0.435
25,RRIRDRPPRLPRPRPRPQTSPRP,0.117
